Experimental findings from US20120316071A1 (published 2012) are described below.

In assay [1] the target is T1, rHuman Erythropoietin R/Fc Chimera, CF (R&D Systems Cat#963-ER) (human, UniProt P19235 25-250).
T1 construct: Bought reagent; also called EPO R/Fc; Epo R
T1 sequence (looked up): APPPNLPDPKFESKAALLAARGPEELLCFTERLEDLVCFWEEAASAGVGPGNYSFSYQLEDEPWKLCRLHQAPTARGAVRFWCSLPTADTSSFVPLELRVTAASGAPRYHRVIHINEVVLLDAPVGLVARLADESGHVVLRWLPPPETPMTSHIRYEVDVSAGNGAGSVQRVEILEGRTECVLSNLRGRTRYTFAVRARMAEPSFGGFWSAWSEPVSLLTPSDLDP
Description: MSD multispot ECL, antigen spotted, Fab 0.1 nM; blank spot 201.

Assay [2] has as its target T2, rHuman IGF-1 sR, (IGF-1 sR), CF (R&D Systems Cat#391-GR) (human, UniProt P08069 31-932).
T2 construct: Bought soluble receptor; also called insulin-like growth factor-1 soluble receptor
The assay is described as above.

Assay [3] concerns the target T3, rHuman Notch-1/Fc Chimera, CF (R&D Systems Cat#3647-TK) (human, UniProt P46531 19-526).
T3 construct: Bought reagent
The assay is described as above.

For assay [4], the target named is T4, Recombinant Human DLL4 (R&D Systems Cat#1506-D4/CF) (human, UniProt Q9NR61 27-524).
T4 construct: Bought recombinant protein; also called rHuman DLL4; delta-like protein 4
The description is as above.

In assay [5] the target is T5, rHuman CD44/Fc Chimera, CF (R&D Systems Cat#3660-CD) (human, UniProt P16070 21-220).
T5 construct: Bought reagent
The assay is described as above.

For assay [6], the target named is T6, rHuman EGF R/Fc Chimera, CF (R&D Systems Cat#344-ER) (human, UniProt P00533 25-645).
T6 construct: Bought reagent; also called epidermal growth factor receptor
Described as above.

In assay [7] the target is T7, rHuman ErbB2/Fc Chimera, CF (R&D Systems Cat#1129-ER) (human, UniProt P04626 23-652).
T7 construct: Bought reagent; also called human epidermal growth factor 2 receptor
Described as above.

In assay [8] the target is T8, rHuman HGF R/c-MET/Fc Chimera, CF (R&D Systems Cat#358-MT/CF) (human, UniProt P08581 25-932).
T8 construct: Bought reagent; also called HGF R/Fc; hepatocyte growth factor receptor
The description is as above.

Assay [9] concerns the target T9, rHuman EGF R/Fc Chimera, CF (R&D Systems Cat#344-ER) (human, UniProt P00533 25-645).
T9 construct: Bought recombinant protein; Fc part of the bought chimera not given
Nature of the assay: ECL multispot (MSD) assay, spotted antigen; Fab 200.00 (head prints uM).

Assay [10] addresses T10, rHuman ErbB2/Fc Chimera, CF (R&D Systems Cat#1129-ER) (human, UniProt P04626 23-652).
T10 construct: Bought recombinant protein; Fc part of the bought chimera not given
The description is as above.

In assay [11] the target is T11, rHuman P-Cadherin/Fc Chimera, CF (R&D Systems Cat#861-PC) (human, UniProt P22223 108-654).
T11 construct: Bought recombinant protein; Fc part of the bought chimera not given
The description is as above.

Assay [12] deals with T12, rHuman CD44/Fc Chimera, CF (R&D Systems Cat#3660-CD) (human, UniProt P16070 21-220).
T12 construct: Bought reagent; Fc part of the bought chimera not given
Description: MSD Multispot ECL, antigen spotted on plate, Fab 32.5 nM; blank spot 473.

In assay [13] the target is T13, rHuman Erythropoietin R/Fc Chimera, CF (R&D Systems Cat#963-ER) (human, UniProt P19235 25-250).
T13 construct: Bought reagent; also called EPO R/Fc; EPO R; Fc part of the bought chimera not given
T13 sequence (looked up): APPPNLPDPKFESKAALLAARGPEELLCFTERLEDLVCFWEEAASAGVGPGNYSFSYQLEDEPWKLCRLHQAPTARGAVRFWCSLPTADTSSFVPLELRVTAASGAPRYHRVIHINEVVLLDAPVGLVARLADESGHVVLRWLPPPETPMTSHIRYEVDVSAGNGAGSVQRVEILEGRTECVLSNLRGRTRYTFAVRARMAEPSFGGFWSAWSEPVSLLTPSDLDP
The description is as above.

Assay [14] deals with T14, rHuman ErbB2/Fc Chimera, CF (R&D Systems Cat#1129-ER) (human, UniProt P04626 23-652).
T14 construct: Bought reagent; also called human epidermal growth factor 2 receptor; Fc part of the bought chimera not given
The description is as above.

Assay [15] deals with T15, Recombinant Human DLL4 (R&D Systems Cat#1506-D4/CF) (human, UniProt Q9NR61 27-529).
T15 construct: Bought recombinant protein; also called rHuman DLL4; delta-like protein 4
The description is as above.

Assay [16] deals with T16, rHuman HGF R/c-MET/Fc Chimera, CF (R&D Systems Cat#358-MT/CF) (human, UniProt P08581 25-932).
T16 construct: Bought reagent; also called HGF R/Fc; hepatocyte growth factor receptor; Fc part of the bought chimera not given
Described as above.

Assay [17] concerns the target T17, rHuman Notch-1/Fc Chimera, CF (R&D Systems Cat#3647-TK) (human, UniProt P46531 19-526).
T17 construct: Bought reagent; Fc part of the bought chimera not given
Described as above.

For assay [18], the target named is T18, rHuman IGF-1 sR, (IGF-1 sR), CF (R&D Systems Cat#391-GR) (human, UniProt P08069 31-932).
T18 construct: Bought soluble receptor; also called insulin-like growth factor-1 soluble receptor
The description is as above.

Assay [19] deals with T19, rHuman EGF R/Fc Chimera, CF (R&D Systems Cat#344-ER) (human, UniProt P00533 25-645).
T19 construct: Bought reagent; also called epidermal growth factor receptor; Fc part of the bought chimera not given
Described as above.

B1: Fab VH1-46_IGHD6-6*01_IGHJ1*01 & L6_IGKJ1*01 (Fab, V domains shown)
VH: QVQLVQSGAEVKKPGASVKVSCKASGYTFTSYYMHWVRQAPGQGLEWMGIINPSGGSTSYAQKFQGRVTMTRDTSTSTVYMELSSLRSEDTAVYYCAREEYSSSSAEYFQHWGQGTLVTVSS
VL: not shown
notes: Only variable domains are tied to the molecule; Tested as a Fab made in E. coli: heavy chain from Plasmid A (CH1 constant region, His6 and Flag tags), kappa light chain from Plasmid C (kappa CL); also called parent Hit Fab against DLL4; VH1-46_IGHD6-6*01_IGHJ1*01 & L6_IGKJ1*01 (parental)
Turning to B1, the ECL signal in assay [1] was determined as 373 ECL signal; in assay [2] it was 241 ECL signal; in [3], 378 ECL signal; in assay [4], 317 ECL signal; in assay [5] it was 323 ECL signal; in assay [6], 311 ECL signal. Moreover, the values for the ECL signal in assay [7] and in assay [8] were 306 ECL signal and 286 ECL signal, respectively.

B2: Fab VH5-51_IGHD5-18*01>3_IGHJ4*01 G100K/G104T & V3-4_IGLJ1*01 (Fab, V domains shown)
VH: EVQLVQSGAEVKKPGESLKISCKGSGYSFTSYWIGWVRQMPGKGLEWMGIIYPGDSDTRYSPSFQGQVTISADKSISTAYLQWSSLKASDTAMYYCARRKYSYTYDYFDYWGQGTLVTVSS
VL: QTVVTQEPSFSVSPGGTVTLTCGLSSGSVSTSYYPSWYQQTPGQAPRTLIYSTNTRSSGVPDRFSGSILGNKAALTITGAQADDESDYYCVLYMGSGISYVFGTGTKVTVL
notes: Tested as a Fab; The constant parts are the same as for the parent Fab (CH1 with His6/Flag tags, lambda CL); also called KT double mutant; H:KT
With B2, the ECL signal/noise ratio in assay [9] came out at 1.6; in [10], 1.7; in [11], 2.

B3: Fab VH1-8_IGHD2-2*01_IGHJ6*01 & L12_IGKJ1*01 (Fab, V domains shown)
VH: QVQLVQSGAEVKKPGASVKVSCKASGYTFTSYDINWVRQATGQGLEWMGWMNPNSGNTGYAQKFQGRVTMTRNTSISTAYMELSSLRSEDTAVYYCARGGYCSSTSCYADYYYYYGMDVWGQGTTVTVSS
VL: not shown
Regarding B3, the ECL signal came to 573 in assay [12]; 673 in assay [13]; 556 in [14]; 2990 in assay [15]; 525 in assay [16]; 706 in [17]. For the same molecule, the ECL signal was found to be 561 in assay [18] and 645 in assay [19].
